Target: HA-NEK7 (mouse NIMA-related kinase 7, wild type) (mouse, UniProt Q9ES74 1-302)
Assay: BLI

Chain of HA-NEK7 (mouse NIMA-related kinase 7, wild type) (Q9ES74 whole entry): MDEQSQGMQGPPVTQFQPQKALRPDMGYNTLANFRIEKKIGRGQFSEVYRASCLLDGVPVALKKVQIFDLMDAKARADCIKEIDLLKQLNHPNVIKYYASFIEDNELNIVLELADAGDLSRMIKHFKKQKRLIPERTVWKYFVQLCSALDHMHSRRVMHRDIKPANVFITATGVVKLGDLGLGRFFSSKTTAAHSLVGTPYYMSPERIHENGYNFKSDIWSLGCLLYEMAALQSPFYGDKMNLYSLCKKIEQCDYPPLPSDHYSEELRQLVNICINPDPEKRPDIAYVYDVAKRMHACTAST

Kd: 197 µM
Binder: KLVALKTNGDGNCLMHAACQYMWGVQDTD [A20-derived peptide P-II]
